Results published in US20120316071A1 (published 2012).

Key:
[1] = target: T1, Recombinant Human DLL4 (human, UniProt Q9NR61 27-524); experiment: ELISA, DLL4 coated on plate, Fab at 100 nM, absorbance at 450 nm minus blank
T1 construct: also called delta-like protein 4; rHuman DLL4

[2] = target: T2, Recombinant Human DLL4 (delta-like protein 4) (human, UniProt Q9NR61 27-524); experiment: ELISA, DLL4 coated on plate, Fab at 100 nM
T2 construct: also called rHuman DLL4; Delta-like 4

Row | Binder | ELISA Signal-blank (100 nM Fab) [1] | ELISA Signal-blank (100 nM Fab) [2]
1 | Fab VH5-51_IGHD5-18*01>3_IGHJ4*01 G100K/G104T G24T/S28R/G35V (H:KT TRV) & V3-4_IGLJ1*01 T78E (Fab, V domains shown, Fab; expressed in E. coli with CH1 (Plasmid A, His6 and Flag tags) and lambda CL (Plasmid E); also called H:KT TRV & T78E) VH: EVQLVQSGAEVKKPGESLKISCKTSGYRFTSYWIVWVRQMPGKGLEWMGIIYPGDSDTRYSPSFQGQVTISADKSISTAYLQWSSLKASDTAMYYCARRKYSYTYDYFDYWGQGTLVTVSS VL: QTVVTQEPSFSVSPGGTVTLTCGLSSGSVSTSYYPSWYQQTPGQAPRTLIYSTNTRSSGVPDRFSGSILGNKAALTIEGAQADDESDYYCVLYMGSGISYVFGTGTKVTVL | 0.217 | –
2 | Fab VH5-51_IGHD5-18*01>3_IGHJ4*01 G100K/G104T G24T/S28R/G35V (H:KT TRV) & V3-4_IGLJ1*01 S96A (Fab, V domains shown, Fab; expressed in E. coli with CH1 (Plasmid A, His6 and Flag tags) and lambda CL (Plasmid E); also called H:KT TRV & S96A) VH: EVQLVQSGAEVKKPGESLKISCKTSGYRFTSYWIVWVRQMPGKGLEWMGIIYPGDSDTRYSPSFQGQVTISADKSISTAYLQWSSLKASDTAMYYCARRKYSYTYDYFDYWGQGTLVTVSS VL: QTVVTQEPSFSVSPGGTVTLTCGLSSGSVSTSYYPSWYQQTPGQAPRTLIYSTNTRSSGVPDRFSGSILGNKAALTITGAQADDESDYYCVLYMGAGISYVFGTGTKVTVL | 0.436 | –
3 | Fab VH5-51_IGHD5-18*01>3_IGHJ4*01 G100K/G104T G24T/S28R/G35V & V3-4_IGLJ1*01 V91L/S96P S52F (Fab, V domains shown, Fab expressed in E. coli; heavy chain vector adds CH1 with His6 and Flag tags, light chain vector adds lambda CL; also called H:KT TRV & L:LP S52F) VH: EVQLVQSGAEVKKPGESLKISCKTSGYRFTSYWIVWVRQMPGKGLEWMGIIYPGDSDTRYSPSFQGQVTISADKSISTAYLQWSSLKASDTAMYYCARRKYSYTYDYFDYWGQGTLVTVSS VL: QTVVTQEPSFSVSPGGTVTLTCGLSSGSVSTSYYPSWYQQTPGQAPRTLIYFTNTRSSGVPDRFSGSILGNKAALTITGAQADDESDYYCLLYMGPGISYVFGTGTKVTVL | – | 0.33
4 | Fab VH5-51_IGHD5-18*01>3_IGHJ4*01 G100K/G104T G24T/S28R/G35V (H:KT TRV) & V3-4_IGLJ1*01 S99A (Fab, V domains shown, Fab; expressed in E. coli with CH1 (Plasmid A, His6 and Flag tags) and lambda CL (Plasmid E); also called H:KT TRV & S99A) VH: EVQLVQSGAEVKKPGESLKISCKTSGYRFTSYWIVWVRQMPGKGLEWMGIIYPGDSDTRYSPSFQGQVTISADKSISTAYLQWSSLKASDTAMYYCARRKYSYTYDYFDYWGQGTLVTVSS VL: QTVVTQEPSFSVSPGGTVTLTCGLSSGSVSTSYYPSWYQQTPGQAPRTLIYSTNTRSSGVPDRFSGSILGNKAALTITGAQADDESDYYCVLYMGSGIAYVFGTGTKVTVL | 0.3 | –
5 | Fab VH5-51_IGHD5-18*01>3_IGHJ4*01 G100K/G104T G24T/S28R/G35V (H:KT TRV) & V3-4_IGLJ1*01 T31A (Fab, V domains shown, Fab; expressed in E. coli with CH1 (Plasmid A, His6 and Flag tags) and lambda CL (Plasmid E); also called H:KT TRV & T31A) VH: EVQLVQSGAEVKKPGESLKISCKTSGYRFTSYWIVWVRQMPGKGLEWMGIIYPGDSDTRYSPSFQGQVTISADKSISTAYLQWSSLKASDTAMYYCARRKYSYTYDYFDYWGQGTLVTVSS VL: QTVVTQEPSFSVSPGGTVTLTCGLSSGSVSASYYPSWYQQTPGQAPRTLIYSTNTRSSGVPDRFSGSILGNKAALTITGAQADDESDYYCVLYMGSGISYVFGTGTKVTVL | 0.552 | –
6 | Fab VH5-51_IGHD5-18*01>3_IGHJ4*01 G100K/G104T G24T/S28R/G35V & V3-4_IGLJ1*01 V91L/S96P S52E (Fab, V domains shown, Fab expressed in E. coli; heavy chain vector adds CH1 with His6 and Flag tags, light chain vector adds lambda CL; also called H:KT TRV & L:LP S52E) VH: EVQLVQSGAEVKKPGESLKISCKTSGYRFTSYWIVWVRQMPGKGLEWMGIIYPGDSDTRYSPSFQGQVTISADKSISTAYLQWSSLKASDTAMYYCARRKYSYTYDYFDYWGQGTLVTVSS VL: QTVVTQEPSFSVSPGGTVTLTCGLSSGSVSTSYYPSWYQQTPGQAPRTLIYETNTRSSGVPDRFSGSILGNKAALTITGAQADDESDYYCLLYMGPGISYVFGTGTKVTVL | – | 0.38

Now from value to binder:

Row | ELISA Signal-blank (100 nM Fab) [1] | ELISA Signal-blank (100 nM Fab) [2] | Binder
7 | 0.347 | – | Fab VH5-51_IGHD5-18*01>3_IGHJ4*01 G100K/G104T G24T/S28R/G35V (H:KT TRV) & V3-4_IGLJ1*01 T78L (Fab, V domains shown, Fab; expressed in E. coli with CH1 (Plasmid A, His6 and Flag tags) and lambda CL (Plasmid E); also called H:KT TRV & T78L) VH: EVQLVQSGAEVKKPGESLKISCKTSGYRFTSYWIVWVRQMPGKGLEWMGIIYPGDSDTRYSPSFQGQVTISADKSISTAYLQWSSLKASDTAMYYCARRKYSYTYDYFDYWGQGTLVTVSS VL: QTVVTQEPSFSVSPGGTVTLTCGLSSGSVSTSYYPSWYQQTPGQAPRTLIYSTNTRSSGVPDRFSGSILGNKAALTILGAQADDESDYYCVLYMGSGISYVFGTGTKVTVL
8 | 0.085 | – | Fab VH5-51_IGHD5-18*01>3_IGHJ4*01 G100K/G104T G24T/S28R/G35V (H:KT TRV) & V3-4_IGLJ1*01 Y34A (Fab, V domains shown, Fab; expressed in E. coli with CH1 (Plasmid A, His6 and Flag tags) and lambda CL (Plasmid E); also called H:KT TRV & Y34A) VH: EVQLVQSGAEVKKPGESLKISCKTSGYRFTSYWIVWVRQMPGKGLEWMGIIYPGDSDTRYSPSFQGQVTISADKSISTAYLQWSSLKASDTAMYYCARRKYSYTYDYFDYWGQGTLVTVSS VL: QTVVTQEPSFSVSPGGTVTLTCGLSSGSVSTSYAPSWYQQTPGQAPRTLIYSTNTRSSGVPDRFSGSILGNKAALTITGAQADDESDYYCVLYMGSGISYVFGTGTKVTVL
9 | 0.606 | – | Fab VH5-51_IGHD5-18*01>3_IGHJ4*01 G100K/G104T G24T/S28R/G35V (H:KT TRV) & V3-4_IGLJ1*01 V91A (Fab, V domains shown, Fab; expressed in E. coli with CH1 (Plasmid A, His6 and Flag tags) and lambda CL (Plasmid E); also called H:KT TRV & V91A) VH: EVQLVQSGAEVKKPGESLKISCKTSGYRFTSYWIVWVRQMPGKGLEWMGIIYPGDSDTRYSPSFQGQVTISADKSISTAYLQWSSLKASDTAMYYCARRKYSYTYDYFDYWGQGTLVTVSS VL: QTVVTQEPSFSVSPGGTVTLTCGLSSGSVSTSYYPSWYQQTPGQAPRTLIYSTNTRSSGVPDRFSGSILGNKAALTITGAQADDESDYYCALYMGSGISYVFGTGTKVTVL
10 | 0.394 | – | Fab VH5-51_IGHD5-18*01>3_IGHJ4*01 G100K/G104T G24T/S28R/G35V (H:KT TRV) & V3-4_IGLJ1*01 V29A (Fab, V domains shown, Fab; expressed in E. coli with CH1 (Plasmid A, His6 and Flag tags) and lambda CL (Plasmid E); also called H:KT TRV & V29A) VH: EVQLVQSGAEVKKPGESLKISCKTSGYRFTSYWIVWVRQMPGKGLEWMGIIYPGDSDTRYSPSFQGQVTISADKSISTAYLQWSSLKASDTAMYYCARRKYSYTYDYFDYWGQGTLVTVSS VL: QTVVTQEPSFSVSPGGTVTLTCGLSSGSASTSYYPSWYQQTPGQAPRTLIYSTNTRSSGVPDRFSGSILGNKAALTITGAQADDESDYYCVLYMGSGISYVFGTGTKVTVL
11 | 0.185 | – | Fab VH5-51_IGHD5-18*01>3_IGHJ4*01 G100K/G104T G24T/S28R/G35V (H:KT TRV) & V3-4_IGLJ1*01 Y93A (Fab, V domains shown, Fab; expressed in E. coli with CH1 (Plasmid A, His6 and Flag tags) and lambda CL (Plasmid E); also called H:KT TRV & Y93A) VH: EVQLVQSGAEVKKPGESLKISCKTSGYRFTSYWIVWVRQMPGKGLEWMGIIYPGDSDTRYSPSFQGQVTISADKSISTAYLQWSSLKASDTAMYYCARRKYSYTYDYFDYWGQGTLVTVSS VL: QTVVTQEPSFSVSPGGTVTLTCGLSSGSVSTSYYPSWYQQTPGQAPRTLIYSTNTRSSGVPDRFSGSILGNKAALTITGAQADDESDYYCVLAMGSGISYVFGTGTKVTVL
